{"source": "paper PMC4196048", "about": "(The Journal of Membrane Biology, 2014)", "proteins": {"B1": {"name": "LPS-free OmpF refolded from inclusion bodies, reconstituted into Amphipol A8-35 (natural protein)", "chain": "MEIYNKDGNKVDLYGKAVGLHYFSKGNGENSYGGNGDMTYARLGFKGETQINSDLTGYGQWEYNFQGNNSEGADAQTGNKTRLAFAGLKYADVGSFDYGRNYGVVYDALGYTDMLPEFGGDTAYSDDFFVGRVGGVATYRNSNFFGLVDGLNFAVQYLGKNERDTARRSNGDGVGGSISYEYEGFGIVGAYGAADRTNLQEAQPLGNGKKAEQWATGLKYDANNIYLAANYGETRNATPITNKFTNTSGFANKTQDVLLVAQYQFDFGLRPSIAYTKSKAKDVEGIGDVDLVNYFEVGATYYFNKNMSTYVDYIINQIDSDNKLGVGSDDTVAVGIVYQF"}}, "molecular_target": "the molecule itself", "assay": "negative-stain transmission electron microscopy", "data": [{"protein": "B1", "values": [{"measurement": "binding result", "value": "binds"}]}]}
